Measured values published in PMC12595022.

Target: 14-3-3γ (UniProt P61981)
Experiment: co-immunoprecipitation, Western blot
Conditions: reference: full-length wild-type MDMX; sites S367

MDMX (from UniProt O15151) MDMX-S367A
binding against the reference: lost
